US11547721B2, “Magnetic nanoparticles for use in the treatment of tumors” (CONSIGLIO NAZIONALE DELLE RICERCHE, priority 2018, dated 2023)

B1: NCs-PEG-Pt-scFv (conjugate)
scFv: NVQLVESGGGLVQPGRSLRLSCTTSGFTFGDYAMIWARQAPGKGLEWVSSISSSSSYIYYADSVKGRFTISRDNAKNSLYLQMNSLRAEDTAVYYCARERYDFWSGMDVWGKGTTVTVSSGGGGSGGGGSGGSAQSALTQPASVSGSPGQSITISCTGTSSDVGSYNLVSWYQQHPGKAPKLMIYEGSKRPSGVSNRFSGSKSGNAASLTISGLQAEDEADYYCQSYDSSLSVVFGGGTKLTVLGAAAHHHHHHGAAEQ
B2: NCs_scFv (conjugate)
scFv: B1 scFv

Key:
IGROV-1 cells [1] = assay: Hyperthermia combined with release of chemotherapeutic agent, viability with Presto blue; assay type: cell-based; details: for cell viability at 24 hours / cell viability at 48 hours / cell viability at 120 hours: with hyperthermia (2 x 30 min, 42° C., 27 kA m^−1, 182 kHz), 5.5 g Fe/L
Procedure: Hyperthermia experiments were conducted on cells treated with the invention's nanocubes to monitor the efficiency of nanoparticles in killing tumor cells with heat and improving the toxicity mediated by oxaliplatin. In practice, 3×10^6 IGROV-1 cells were incubated with 5.5 g of Fe/L of invention nanocubes functionalized with oxaliplatin and NCs-PEG-Pt-C4 antibody fragment, and exposed to a magnetic field of 27 kA m^−1 at frequency of 182 kHz, so as not to exceed the biological limit (Hf=5×10^9 A m^−1 s^−1). Two consecutive 30-minutes hyperthermia treatments were then performed, each with a maximum temperature reached in these conditions of 42° C. Also included in this study were: untreated cells, cells incubated with nanocubes functionalized only with antibody without oxaliplatin (exposed and not exposed to hyperthermia), and cells incubated with nanocubes functionalized with antibody and oxaliplatin not exposed to hyperthermia. A control experiment was also performed by incubating the cells with free oxaliplatin at the same amount of platinum loaded on the nanocubes (28 μg of platinum, corresponding to 140 μM of oxaliplatin).
After the hyperthermal treatment, the cells were washed to remove excess nanocubes present and re-seeded in a fresh culture medium (5×10^4 cells per well for each cell sample), so as to monitor their vitality at 24, 48 and 120 hours after treatment, with an assay with blue Presto. […] After 120 hours, the combined and concomitant action of hyperthermia and release of the chemotherapeutic agent made the cells unable to recover their growth (vitality of about 40% at 120 hours).

IGROV-1 cells [2] = assay: Cytotoxicity, cell viability assay with Presto blue; assay type: cell-based
Procedure: Cytotoxicity studies have been conducted to confirm the activity of the platinum-based chemotherapeutic agent attached to the nanocubes. IGROV-1 cells were incubated with nanocubes functionalized with oxaliplatin and antibody (in FIG. 3a indicated as NCs_OHP_C4) for 24, 48 and 72 hours at Fe concentration equal to 0.05 g/L, 0.1 g/L and 0.15 g/L, corresponding to 1.3, 2.6 and 3.9 μM of oxaliplatin chemotherapeutic agent. Cell viability has been verified in an assay with Presto blue. […] The toxicity of the chemotherapeutic agent alone was administered, administered to the cells for 24 hours, 48 hours and 72 hours at the concentration of oxaliplatin corresponding to the same quantity loaded on the nanocubes. […] It is also important to note that in these experiments the control consisted of nanocubes with polymeric coating, functionalised with PEG-NTA-C4, but lacking oxaliplatin, prepared as described above.
Cytotoxicity data were also collected for longer-time treatments, to verify the toxicity of oxaliplatin loaded on the nanocubes according to the invention over extended periods of time. In fact, since the action of platinum-based chemotherapy drugs involves their interleaving within the cell's DNA, the adverse effects of treatment with these drugs should be more evident at longer times after exposure to the drug. Then, after exposure of the IGROV-1 cells to the nanocubes functionalized with antibody and drug for 24, 48 and 72 hours of treatment respectively, the supernatant was removed and the cells were kept in a fresh culture medium for a further 24, 48 or 72 hours. The viability of these cells was verified by analysis with blue Presto immediately after direct exposure to the nanocubes and at 24, 48 and 72 hours after incubation.

IGROV-1 cells [3] = assay: Comet assay for DNA cross-linking; assay type: cell-based; details: 24, 48, 72 hours incubation, then H2O2
Procedure: Furthermore, once released from the nanocubes, platinum must be incorporated into the cell nuclei and must form crosslinks with the DNA. In fact, its toxicity depends on the impossibility for cells to replicate and transcribe their genetic makeup due to the presence of platinum-DNA complexes. Thus, to evaluate the presence of cross-linking in the DNA of cells treated with nanocubes, a Comet assay was performed, whose results are illustrated in the images in FIG. 7, acquired with a confocal microscope. In this experiment, the cell samples examined of IGROV-1 cells were incubated with the nanocubes with antibody but without platinum (in FIG. 7 indicated as NCs_C4) and with the nanocubes of the invention with antibody and oxaliplatin (indicated in the figure as NCs_OHP_C4) for 24, 48 and 72 hours, so they were treated with H2O2 hydrogen peroxide. As a control, IGROV-1 cells were used, treated with the same nanocubes, with and without platinum, but without treatment with hydrogen peroxide.
The toxicity observed in the cells following treatment with functionalized nanocubes of the invention, we can conclude that it results from the combined effects of hyperthermia and toxicity induced by the platinum-based drug.

[4] = Release of platinum from nanocubes in citrate buffer at different pH; assay type: physicochemical; details: pH 5.5, 5 and 4.5
Source text: Firstly, in a test tube, the release of platinum from the citrated buffer nanocubes at different pH was verified, according to the expected acidity values for endosomes, late endosomes and lysosomes (pH=5.5, 5 and 4.5 respectively). It has thus been verified that the release of platinum is pH dependent and that the maximum amount of platinum released is obtained at the lowest pH, i.e. at pH 4.5, which corresponds to the pH of the lysosomal environment.

IGROV-1 cells [5] = assay: Confocal laser scanning microscopy (CLSM) of nanocube internalization; assay type: cell-based
[6] = tested on: A431-MOCK cells (do not express the folate receptor); assay: Flow cytometry (FACS) binding of nanocubes to cells; assay type: cell-based; details: 0.025 mg/mL antibody fragment, PBS, 4° C., 1 hour
Procedure: (§1) The A431-tFR and A431-MOCK cells provided by the IRCSS Foundation, National Cancer Institute, Milan, Italy, were grown in the modified Dulbecco culture medium (DMEM, Merck, Kenilworth, USA). IGROV-1 cells (ATCC, UK) were cultured in RPMI-1640 (RPMI-1640, Merck, Kenilworth, USA). The KB cells (ATCC, UK) were cultured in RPMI-1640 without folic acid (RPMI-1640 without folic acid, Merck, Kenilworth, USA). All culture media were added with 10% inactivated fetal bovine serum (FBS), 1% penicillin-streptomycin and 1% glutamine at 37° C., 95% humidity with 5% CO2. The cells were divided every 3-4 days before reaching confluence. In these experiments, the functionalized nanocubes of the invention comprising the antibody fragment in a quantity of 0.025 mg/mL were incubated in PBS at 4° C. for 1 hour with 5×10^5 cells of the cell lines indicated above. As a negative control, the non-functionalised nanocubes with polymer coating were used. Then, after three washes, the cells were incubated for 1 hour at 4° C. with the primary antibody that binds to the myc sequence of the C4 antibody fragment. Following a wash in PBS a secondary antibody conjugated to the fluorescent probe Alexa-488 was added to the cells, capable of binding the Fc portion of the primary antibody.

[7] = tested on: IGROV-1 cells (high natural expression of folate receptors); assay: as above; assay type: cell-based; details: 0.025 mg/mL antibody fragment, PBS, 4° C., 1 hour
Procedure: as §1

[8] = tested on: KB cells (high natural expression of folate receptors); assay: as above; assay type: cell-based; details: 0.025 mg/mL antibody fragment, PBS, 4° C., 1 hour
Procedure: as §1

[9] = tested on: A431-tFR cells (A431 transfected with folate receptor gene α-FR); assay: as above; assay type: cell-based; details: 0.025 mg/mL antibody fragment, PBS, 4° C., 1 hour
Procedure: as §1

[10] = 24, 48 and 72 hours, oxaliplatin amount or nanocube concentration as for loaded nanocubes

Molecule | cell viability after treatment (IGROV-1 cells [1]; free drug, 140 μM oxaliplatin (28 μg platinum), 24, 48, 120 hours) | toxicity (cell viability, Presto blue) (IGROV-1 cells [2]; [10]) | cell viability at 24 hours (IGROV-1 cells [1]) | cell viability at 48 hours (IGROV-1 cells [1]) | cell viability at 120 hours (IGROV-1 cells [1]) | DNA trace in Comet assay (IGROV-1 cells [3]) | pH of maximum amount of platinum released [4] | release of platinum [4] | localization of nanocubes in cells (IGROV-1 cells [5]; 2 hours incubation at 37° C.) | localization of nanocubes in cells (IGROV-1 cells [5]; 4 hours incubation at 37° C.) | localization of nanocubes in cells (IGROV-1 cells [5]; 12 hours incubation at 37° C.) | cell viability post-incubation (p.i.) (IGROV-1 cells [2]; 24 hours of treatment, then fresh medium 24, 48, 72 hours) | toxicity (cell viability, Presto blue) (IGROV-1 cells [2]; 48 hours incubation, Fe 0.05, 0.1, 0.15 g/L = 1.3, 2.6, 3.9 μM oxaliplatin) | cell viability post-incubation (p.i.) (IGROV-1 cells [2]; 48 hours of treatment, then fresh medium up to 72 hours) | toxicity (cell viability, Presto blue) (IGROV-1 cells [2]; 72 hours incubation vs 48 hours, Fe 0.05, 0.1, 0.15 g/L = 1.3, 2.6, 3.9 μM oxaliplatin) | nanocube binding to cells (fluorescence intensity vs. cell count) [6] | nanocube binding to cells (fluorescence intensity vs. cell count) [7] | nanocube binding to cells (fluorescence intensity vs. cell count) [8] | nanocube binding to cells (fluorescence intensity vs. cell count) [9]
O=C1[O][Pt]2([NH][C@@H]3CCCC[C@H]3[NH]2)[O]C1=O [oxaliplatin, reference compound] | slightly affected | moderate toxicity | – | – | – | – | – | – | – | – | – | – | – | – | – | – | – | – | –
B1 | – | – | significantly modified cell viability | further compromised | about 40% | progressive delay in migration reaching a maximum after 72 hours | 4.5 | pH dependent | most of the nanocubes were located at the cell membrane | progressive internalization | complete internalization | decreases after 24 hours of treatment (post-incubation, p.i.) for the next 24 hours and then goes up again after 48 and 72 hours post-incubation | Serious toxicity | decreases again for the next 72 hours | increased | no binding was found | nanocube binding was demonstrated | nanocube binding was demonstrated | nanocube binding was demonstrated
B2 | – | no toxicity | significantly modified cell viability | began to show a recovery | 95% | traces of extensive damage | – | – | – | – | – | – | – | – | – | – | – | – | –
